Measured values from patent US20240374532A1.

Legend:
GST-Mcl-1 = GST-Mcl-1 (UniProt Q07820); experiment: SPR (Biacore 3000), GST-Mcl-1 binding to GST-Casp8p41, mean of 3 experiments; target Mcl-1
GST-Bcl-xL = GST-Bcl-xL (UniProt Q07817); experiment: SPR (Biacore 3000), GST-Bcl-xL binding to GST-Casp8p41, mean of 3 experiments; target Bcl-xL
GST-Bcl-2 (human) [1] = target: GST-Bcl-2 (human) (UniProt P10415); experiment: SPR (Biacore 3000), GST-Bcl-2 injected over immobilized GST-Casp8p41, mean of 3 experiments; target Bcl-2
GST-Bcl-2 (human) [2] = target: GST-Bcl-2 (human) (UniProt P10415); experiment: SPR, GST-Casp8p41 Val150Glu/Leu157Lys over immobilized GST-Bcl-2
GST-Casp8p41 = GST-Casp8p41 (UniProt Q14790); experiment: SPR, GST-Bcl-2 R146A over immobilized Casp8p41

GST-Bcl-2 (human), sequence (P10415 1-218): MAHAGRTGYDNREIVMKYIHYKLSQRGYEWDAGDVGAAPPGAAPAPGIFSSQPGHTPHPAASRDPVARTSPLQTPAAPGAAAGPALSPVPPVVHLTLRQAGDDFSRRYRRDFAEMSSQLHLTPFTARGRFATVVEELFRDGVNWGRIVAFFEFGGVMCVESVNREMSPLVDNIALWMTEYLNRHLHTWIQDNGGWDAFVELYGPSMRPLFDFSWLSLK
GST-Mcl-1, sequence (Q07820 1-327): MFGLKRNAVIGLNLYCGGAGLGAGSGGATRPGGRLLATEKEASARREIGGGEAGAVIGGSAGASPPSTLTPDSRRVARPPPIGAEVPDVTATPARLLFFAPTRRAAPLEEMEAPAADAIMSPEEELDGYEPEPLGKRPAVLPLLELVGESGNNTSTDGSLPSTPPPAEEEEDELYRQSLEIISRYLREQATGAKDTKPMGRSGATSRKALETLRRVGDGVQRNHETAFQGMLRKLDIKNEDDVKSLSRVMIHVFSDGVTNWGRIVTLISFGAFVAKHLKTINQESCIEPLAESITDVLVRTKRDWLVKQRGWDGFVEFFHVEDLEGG
GST-Bcl-xL, sequence (Q07817 1-212): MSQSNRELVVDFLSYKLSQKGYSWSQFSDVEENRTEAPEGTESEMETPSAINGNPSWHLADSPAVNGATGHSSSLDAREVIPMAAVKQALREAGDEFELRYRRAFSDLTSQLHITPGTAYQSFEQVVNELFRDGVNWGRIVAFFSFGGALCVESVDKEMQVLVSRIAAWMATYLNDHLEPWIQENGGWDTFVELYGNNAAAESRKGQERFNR

Work on “GST-Casp8p41 (from UniProt Q14790 1-479)” yielded a Kd (GST-Mcl-1) of 8 nM, a Kd (GST-Bcl-xL) of 11 nM and a Kd (GST-Bcl-2 (human) [1]) of 13 nM.

In the case of “GST-Casp8p41 Val150Glu/Leu157Lys (from UniProt Q14790 1-479)”, the fold decrease in affinity against wild-type Casp8p41 (GST-Bcl-2 (human) [2]) is reported as > 300 fold.

“GST-Bcl-2 R146A (from UniProt P10415 1-218)” gave a fold decrease in affinity against wild-type Bcl-2 (GST-Casp8p41) of 250 fold.
